Experimental data reported in PMC7849366 (Genes & Development, 2021).

Target: full-length recombinant MYC-KEAP1 (human, UniProt Q14145 1-624)
Experiment: pull-down

full-length recombinant MYC-KEAP1, sequence (Q14145 whole entry): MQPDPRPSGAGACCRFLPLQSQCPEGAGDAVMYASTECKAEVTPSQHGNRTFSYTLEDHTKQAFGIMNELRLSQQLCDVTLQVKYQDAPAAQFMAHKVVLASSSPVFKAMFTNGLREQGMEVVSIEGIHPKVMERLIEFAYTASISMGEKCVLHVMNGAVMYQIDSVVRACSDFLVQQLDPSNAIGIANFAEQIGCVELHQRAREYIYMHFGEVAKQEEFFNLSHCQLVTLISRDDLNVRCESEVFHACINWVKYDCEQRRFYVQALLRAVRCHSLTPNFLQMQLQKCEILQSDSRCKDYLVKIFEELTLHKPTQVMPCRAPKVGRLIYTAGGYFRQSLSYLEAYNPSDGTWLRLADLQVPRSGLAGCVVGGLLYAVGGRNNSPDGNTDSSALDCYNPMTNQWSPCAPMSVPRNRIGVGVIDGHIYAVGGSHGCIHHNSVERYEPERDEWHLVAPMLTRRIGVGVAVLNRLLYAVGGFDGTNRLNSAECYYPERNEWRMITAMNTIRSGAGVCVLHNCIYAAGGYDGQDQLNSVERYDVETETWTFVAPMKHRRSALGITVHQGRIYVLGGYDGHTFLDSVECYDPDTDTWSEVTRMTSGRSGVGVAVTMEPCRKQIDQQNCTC

Kd: 2.87 nM
B1: full-length recombinant GST-ATDC (natural protein)
chain: MEAADASRSNGSSPEARDARSPSGPSGSLENGTKADGKDAKTTNGHGGEAAEGKSLGSALKPGEGRSALFAGNEWRRPIIQFVESGDDKNSNYFSMDSMEGKRSPYAGLQLGAAKKPPVTFAEKGELRKSIFSESRKPTVSIMEPGETRRNSYPRADTGLFSRSKSGSEEVLCDSCIGNKQKAVKSCLVCQASFCELHLKPHLEGAAFRDHQLLEPIRDFEARKCPVHGKTMELFCQTDQTCICYLCMFQEHKNHSTVTVEEAKAEKETELSLQKEQLQLKIIEIEDEAEKWQKEKDRIKSFTTNEKAILEQNFRDLVRDLEKQKEEVRAALEQREQDAVDQVKVIMDALDERAKVLHEDKQTREQLHSISDSVLFLQEFGALMSNYSLPPPLPTYHVLLEGEGLGQSLGNFKDDLLNVCMRHVEKMCKADLSRNFIERNHMENGGDHRYVNNYTNSFGGEWSAPDTMKRYSMYLTPKGGVRTSYQPSSPGRFTKETTQKNFNNLYGTKGNYTSRVWEYSSSIQNSDNDLPVVQGSSSFSLKGYPSLMRSQSPKAQPQTWKSGKQTMLSHYRPFYVNKGNGIGSNEAP
